From patent publication US20230399384A1 (University of Texas, published 2023) come the findings set out here.

The target of experiment [1] is T1, sCoV2-RBD (Fc-tagged RBD of SARS-CoV-2 S protein) (SARS-CoV-2; human, UniProt P0DTC2 319-541). In words: ELISA titration on coated sCoV2-RBD. A general note: An ELISA detects its analyte on a solid surface through an enzyme-linked reagent.
Experiment [2] deals with SARS-CoV-2 RBD protein (Sino Biological, Cat: 40592-V08B) (SARS-CoV-2, UniProt P0DTC2 319-541). As to the kind of experiment: BLI (Octet), mAb on Protein A sensor. Background: In BLI a coated tip is dipped into the sample, and binding shifts an interference pattern.
Experiment [3] deals with T2, sCoV-RBD (Fc-tagged RBD of SARS-CoV S protein) (SARS-CoV; human, UniProt P59594 306-527). As to the kind of experiment: ELISA titration on coated sCoV-RBD.
The target of experiment [4] is T1, sCoV2-RBD (Fc-tagged RBD of SARS-CoV-2 …). As to the kind of experiment: ELISA titration on coated sCoV2-RBD. This is another data set of the same source.
The target in experiment [5] is T2, sCoV-RBD (Fc-tagged RBD of SARS-CoV S …). In words: BLI (Octet) blocking of ACE2 binding to sCoV-RBD.
Experiment [6] concerns the target T3, S protein of SARS-CoV (SARS-CoV, UniProt P59594 14-1195). In words: BLI (Octet), CoV2-20 against spike of SARS-CoV.
Experiment [7] deals with T1, sCoV2-RBD (Fc-tagged RBD of SARS-CoV-2 …). As to the kind of experiment: BLI (Octet) blocking of ACE2 binding to captured sCoV2-RBD.
Experiment [8] has the same target.
Experiment [9] concerns the target T2, sCoV-RBD (Fc-tagged RBD of SARS-CoV S …).
For experiment [10], the target named is trimeric prefusion S protein of SARS-CoV-2 (SARS-CoV-2, UniProt P0DTC2 14-1208).
Experiment [11] deals with T3, S protein of SARS-CoV.
In experiment [12] the target is SARS-CoV-2 S protein on live SARS-CoV-2-mNG reporter virus (SARS-CoV-2, UniProt P0DTC2 14-1273). As to the kind of experiment: cell-based or functional assay.
For a further experiment, the target named is T4, S protein of MERS-CoV (MERS-CoV, UniProt K9N5Q8 18-1296).
T4 sequence: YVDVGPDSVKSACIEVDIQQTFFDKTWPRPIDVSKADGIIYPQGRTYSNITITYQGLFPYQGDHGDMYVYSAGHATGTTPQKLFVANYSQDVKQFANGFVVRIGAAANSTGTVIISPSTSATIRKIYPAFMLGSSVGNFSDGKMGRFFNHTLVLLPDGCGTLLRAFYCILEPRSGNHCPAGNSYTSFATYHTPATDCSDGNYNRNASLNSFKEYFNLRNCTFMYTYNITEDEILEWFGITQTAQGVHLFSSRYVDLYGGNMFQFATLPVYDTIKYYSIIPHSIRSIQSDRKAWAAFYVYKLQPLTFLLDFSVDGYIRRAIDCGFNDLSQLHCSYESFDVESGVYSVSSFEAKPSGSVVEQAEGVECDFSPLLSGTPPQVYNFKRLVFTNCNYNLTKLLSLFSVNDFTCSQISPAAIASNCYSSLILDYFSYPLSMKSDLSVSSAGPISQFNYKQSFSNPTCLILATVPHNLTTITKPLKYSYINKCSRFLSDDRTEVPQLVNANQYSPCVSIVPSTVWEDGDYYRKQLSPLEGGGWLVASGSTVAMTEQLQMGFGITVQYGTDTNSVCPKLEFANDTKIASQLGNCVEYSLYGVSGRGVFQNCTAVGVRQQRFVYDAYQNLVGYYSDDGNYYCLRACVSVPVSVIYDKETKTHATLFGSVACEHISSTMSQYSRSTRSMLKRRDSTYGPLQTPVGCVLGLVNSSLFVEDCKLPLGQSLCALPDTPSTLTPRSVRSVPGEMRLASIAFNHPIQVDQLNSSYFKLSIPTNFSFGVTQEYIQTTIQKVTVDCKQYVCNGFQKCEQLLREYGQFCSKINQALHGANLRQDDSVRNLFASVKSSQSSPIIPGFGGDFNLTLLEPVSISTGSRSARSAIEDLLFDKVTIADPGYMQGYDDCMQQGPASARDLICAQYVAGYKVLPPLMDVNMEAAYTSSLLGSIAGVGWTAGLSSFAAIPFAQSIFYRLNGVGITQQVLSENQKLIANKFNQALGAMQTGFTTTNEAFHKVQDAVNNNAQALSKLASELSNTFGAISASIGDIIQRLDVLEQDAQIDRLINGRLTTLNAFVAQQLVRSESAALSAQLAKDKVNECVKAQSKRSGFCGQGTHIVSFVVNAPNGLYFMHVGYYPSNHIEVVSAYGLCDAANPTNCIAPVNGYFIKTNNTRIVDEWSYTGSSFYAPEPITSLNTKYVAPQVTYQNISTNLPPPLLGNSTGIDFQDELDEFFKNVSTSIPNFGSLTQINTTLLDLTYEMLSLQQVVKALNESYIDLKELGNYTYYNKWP
As to the kind of experiment: BLI kinetic binding (FIG. 28D).

Like-named read-outs stand apart in the source and are kept apart here.

B1: CoV2-20 (antibody, V domains shown)
VH: QVQLVESGGDLVQPGRSLRLSCAASGFIFDDYAMHWVRQVPGKGPEWVSGVNRDSTYVGQADSVKGRFTISRDNAKKALFLQMDSLRVEDTALYYCVRGMTRVATDAFDFWGQGTMVTVSS
VL: AIQMTQSPSSLSASVGDRVTITCRASQSINGYLNWYQQKPGKAPKLLIYSASRLQSGVPSRFSGSGSGADYTLTISNLQVEDFATYYCQQSYSTPPVTFGQGTRLEIK
As to B1, the concentration for a half-maximal effect (EC50) in experiment [1] turned out to be 22 nM; in experiment [3], 9.96 nM; in [4] it was 5.99 nM. Also, the Kd in experiment [2] worked out at 29.5 nM; with S protein of SARS-CoV [6], 24.4 nM. For the same molecule, the values for the koff (in [2]; with S protein of SARS-CoV [6]) were 0.000805 s⁻¹ and 0.000676 s⁻¹, respectively. Also, the kon in experiment [2] was found to be 27300 M⁻¹ s⁻¹; with S protein of SARS-CoV [6], 27700 M⁻¹ s⁻¹. Moreover, the IC50 in experiment [5] was determined as 44.6 µg/mL; in [7] it was 14.7 µg/mL.

B2: CoV2-12 (antibody, V domains shown)
VH: QVQLVESGGGVVQPGRSLRLSCVASGFTFSSYAMQWVRQAPGKGLEYVAVVSDDGNMKFYADSVKGRFTISRDNSRNTVSLQMNSLGVEDTAVYYCARENYFWSGSIGGLDYWGQGTLVSVSS
VL: not shown
B2: the values for the EC50 in experiment [8], in experiment [9] and in experiment [1] were 0.89 nM, 3.51 nM and 2.11 nM, respectively. For the same molecule, the Kd in experiment [10] came out at 10.7 nM; in the experiment with S protein of SARS-CoV [11], 9.95 nM. For the same molecule, the “NC50 (neutralisation of reporter SARS-CoV-2, Vero E6 cells)” value in experiment [12] came to 18.2 µg/mL. For the same molecule, the binding result with S protein of MERS-CoV is given as “no binding”. Moreover, the results for the IC50 in experiment [5] and in experiment [7] were 1.71 µg/mL and 2.13 µg/mL, respectively.

By EC50 is commonly meant the concentration needed to bring the measured effect to its halfway point. A high value points to a less potent agent. By Kd is commonly meant the constant that tells how readily two partners part at equilibrium. A lower Kd goes with tighter binding. A word on the koff: it is a measure of how fast the partners let go of each other. Low values mean a long-lived complex, high ones a short-lived complex. A word on the kon: it is the rate constant with which the complex forms. The term IC50 denotes the midpoint of a concentration-inhibition curve. Low readings indicate inhibition by little substance, high ones a need for much substance.
